Consider ten molecules from article PMC3535368, “Heme orientation modulates histidine dissociation and ligand binding kinetics in the hexacoordinated human neuroglobin” (Journal of Biological Inorganic Chemistry, 2012).

Like-named read-outs stand apart in the source and are kept apart here.

The conditions of data set [1]: for fraction of isomer remaining unbound (free) at equilibrium: end of reaction; for k off, off-rate of cyanide: estimated from K d and k obs; for Kd: read-out: K d, dissociation constant of cyanide, calculated from concentrations of free and bound species at equilibrium.
On the set-up of data set [2]: method as in PMID 15020597. The conditions noted are these: UV-visible study; cited from earlier work.
Data set [3] can be described thus: Air reoxidation of the disulfide bridge followed by 1H NMR, cyanide omitted. As to conditions: no reducing agent, increase of WTox peak intensity. Format: physicochemical, human.
Where [4] appears, read: 500 μM KCN, 100 μM protein, 20 mM Tris-HCl pH 7.4, 298 K.
The mark [5] stands for this setting: calculated from T and 500 μM cyanide, 1/T = k obs[CN−].

B1: WTox (A isomer): oxidized wild-type human Ngb (Cys46-Cys55 disulfide bridge), A heme conformer (protein, UniProt Q9NPG2 1-151, looked up)
Neuroglobin: MERPEPELIRQSWRAVSRSPLEHGTVLFARLFALEPDLLPLFQYNCRQFSSPEDCLSSPEFLDHIRKVMLVIDAAVTNVEDLSSLEEYLASLGRKHRAVGVKLSSFSTVGESLLYMLEKCLGPAFTPATRAAWSQLYGAVVQAMSRGWDGE
modifications: oxidized, heme A isomer
B1: the “T, time constant of cyanide binding (exponential fit of heme methyl peak intensities)” value (from here on “T, time constant of cyanide binding”) in data set [1] (setting [4]) is 19 min. In addition, in data set [1] (setting [5]), the “k obs, second-order association rate constant for cyanide binding” value (“k obs” for short) was 1.75 M⁻¹ s⁻¹. For the same molecule, the “time after KCN injection at which CN− binding reaction was completed” value in data set [1] (judged from constant peak intensities, 500 μM KCN) was 60 min.

B2: C120Sox (B isomer) (protein, UniProt Q9NPG2 1-151, looked up, variant C120S)
Neuroglobin: MERPEPELIRQSWRAVSRSPLEHGTVLFARLFALEPDLLPLFQYNCRQFSSPEDCLSSPEFLDHIRKVMLVIDAAVTNVEDLSSLEEYLASLGRKHRAVGVKLSSFSTVGESLLYMLEKSLGPAFTPATRAAWSQLYGAVVQAMSRGWDGE
modifications: oxidized, heme B isomer
With B2, in data set [1], the “k obs” value was determined as 0.28 M⁻¹ s⁻¹. Besides, the “T, time constant of cyanide binding” value in data set [1] (pH 7.4) is given as 119 min.

B3: C120Sred (B isomer) (protein, UniProt Q9NPG2 1-151, looked up, variant C120S)
Neuroglobin: MERPEPELIRQSWRAVSRSPLEHGTVLFARLFALEPDLLPLFQYNCRQFSSPEDCLSSPEFLDHIRKVMLVIDAAVTNVEDLSSLEEYLASLGRKHRAVGVKLSSFSTVGESLLYMLEKSLGPAFTPATRAAWSQLYGAVVQAMSRGWDGE
modifications: reduced, heme B isomer
As to B3, in data set [1], the “k obs” value was determined as 0.13 M⁻¹ s⁻¹. For the same molecule, the “T, time constant of cyanide binding” value in data set [1] (pH 7.4) was determined as 255 min.

B4: WTred (A isomer): DTT-reduced wild-type human Ngb, A heme conformer (protein, UniProt Q9NPG2 1-151, looked up)
Neuroglobin: MERPEPELIRQSWRAVSRSPLEHGTVLFARLFALEPDLLPLFQYNCRQFSSPEDCLSSPEFLDHIRKVMLVIDAAVTNVEDLSSLEEYLASLGRKHRAVGVKLSSFSTVGESLLYMLEKCLGPAFTPATRAAWSQLYGAVVQAMSRGWDGE
modifications: DTT-reduced, heme A conformer
Turning to B4, the “T, time constant of cyanide binding” value in data set [1] (setting [4]) turned out to be 127 min. The “k obs” value in data set [1] (setting [5]) was 0.26 M⁻¹ s⁻¹. In addition, in data set [1] (500 μM KCN, 100 μM protein), the “fraction of isomer remaining unbound (free) at equilibrium” value is reported as “about 42%”. Moreover, in data set [1], the “k off, off-rate of cyanide” value is 3.9e-05 s⁻¹ and the Kd was 153 µM.

B5: C120Sox (A isomer) (protein, UniProt Q9NPG2 1-151, looked up, variant C120S)
Neuroglobin: MERPEPELIRQSWRAVSRSPLEHGTVLFARLFALEPDLLPLFQYNCRQFSSPEDCLSSPEFLDHIRKVMLVIDAAVTNVEDLSSLEEYLASLGRKHRAVGVKLSSFSTVGESLLYMLEKSLGPAFTPATRAAWSQLYGAVVQAMSRGWDGE
modifications: oxidized, heme A isomer
Consider B5, for which the “k obs” value in data set [1] was 1.85 M⁻¹ s⁻¹. Further, the “T, time constant of cyanide binding” value in data set [1] (pH 7.4) is recorded as 18 min.

B6: WTred (B isomer): DTT-reduced wild-type human Ngb, B heme conformer (protein, UniProt Q9NPG2 1-151, looked up)
Neuroglobin: MERPEPELIRQSWRAVSRSPLEHGTVLFARLFALEPDLLPLFQYNCRQFSSPEDCLSSPEFLDHIRKVMLVIDAAVTNVEDLSSLEEYLASLGRKHRAVGVKLSSFSTVGESLLYMLEKCLGPAFTPATRAAWSQLYGAVVQAMSRGWDGE
modifications: DTT-reduced, heme B conformer
B6: in data set [1] (setting [4]), the “T, time constant of cyanide binding” value is reported as 265 min. In data set [1] (setting [5]), the “k obs” value was 0.12 M⁻¹ s⁻¹. The “fraction of isomer remaining unbound (free) at equilibrium” value in data set [1] (500 μM KCN, 100 μM protein) is given as roughly 24%. In data set [1], the “k off, off-rate of cyanide” value is 3.9e-05 s⁻¹ and the Kd was 316 µM.

B7: WTox (B isomer): oxidized wild-type human Ngb (Cys46-Cys55 disulfide bridge), B heme conformer (protein, UniProt Q9NPG2 1-151, looked up)
Neuroglobin: MERPEPELIRQSWRAVSRSPLEHGTVLFARLFALEPDLLPLFQYNCRQFSSPEDCLSSPEFLDHIRKVMLVIDAAVTNVEDLSSLEEYLASLGRKHRAVGVKLSSFSTVGESLLYMLEKCLGPAFTPATRAAWSQLYGAVVQAMSRGWDGE
modifications: oxidized, heme B isomer
As to B7, in data set [1] (500 μM KCN), the “time after which CN− binding reaction was hardly finished” value is on record as roughly 5 h. Moreover, in data set [1] (setting [4]), the “T, time constant of cyanide binding” value came out at 97 min. The “k obs” value in data set [1] (setting [5]) was 0.34 M⁻¹ s⁻¹.

B8: human Ngb: human neuroglobin, hexacoordinated hemoprotein of brain and retina (protein, UniProt Q9NPG2 1-151, looked up)
Neuroglobin: MERPEPELIRQSWRAVSRSPLEHGTVLFARLFALEPDLLPLFQYNCRQFSSPEDCLSSPEFLDHIRKVMLVIDAAVTNVEDLSSLEEYLASLGRKHRAVGVKLSSFSTVGESLLYMLEKCLGPAFTPATRAAWSQLYGAVVQAMSRGWDGE
As to B8, the “k on,CN, rate of cyanide binding to the pentacoordinate state” value in data set [1] (estimated here) was 6700 M⁻¹ s⁻¹. Further, in data set [2], the “fast cyanide binding rate (biphasic)” value was 1.65 M⁻¹ s⁻¹ and the “slow cyanide binding rate (biphasic)” value was 0.37 M⁻¹ s⁻¹.

B9: WTred: wild-type human Ngb with reduced cysteines, both heme isomers (protein, UniProt Q9NPG2 1-151, looked up)
Neuroglobin: MERPEPELIRQSWRAVSRSPLEHGTVLFARLFALEPDLLPLFQYNCRQFSSPEDCLSSPEFLDHIRKVMLVIDAAVTNVEDLSSLEEYLASLGRKHRAVGVKLSSFSTVGESLLYMLEKCLGPAFTPATRAAWSQLYGAVVQAMSRGWDGE
modifications: reduced cysteines
notes: wild-type human Ngb with reduced cysteines, both heme isomers
Consider B9, for which the “rate (time) of air reoxidation of the disulfide bridge” value in data set [3] is given as “about 60 h”.

B10: C120Sred (A isomer) (protein, UniProt Q9NPG2 1-151, looked up, variant C120S)
Neuroglobin: MERPEPELIRQSWRAVSRSPLEHGTVLFARLFALEPDLLPLFQYNCRQFSSPEDCLSSPEFLDHIRKVMLVIDAAVTNVEDLSSLEEYLASLGRKHRAVGVKLSSFSTVGESLLYMLEKSLGPAFTPATRAAWSQLYGAVVQAMSRGWDGE
modifications: reduced, heme A isomer
For B10, the “k obs” value in data set [1] was found to be 0.24 M⁻¹ s⁻¹. Further, in data set [1] (pH 7.4), the “T, time constant of cyanide binding” value amounted to 138 min.
